Assays:
[1] = molecular target: EBV NEC215-N31S_(BFLF2)/L262F_(BFLF2)-His8 (Epstein-Barr virus (strain B95-8)) (UniProt P03185)
[2] = molecular target: EBV NEC215-N121Q_(BFRF1)/N31S_(BFLF2)-His8 (Epstein-Barr virus (strain B95-8)) (UniProt P03185)
[3] = molecular target: EBV NEC215-Q43A_(BFRF1)/N31S_(BFLF2)-His8 (Epstein-Barr virus (strain B95-8)) (UniProt P03185)
[4] = molecular target: EBV NEC215-N31S_(BFLF2)/F267W_(BFLF2)-His8 (Epstein-Barr virus (strain B95-8)) (UniProt P03185)
[5] = molecular target: the molecule itself; experiment: crystal structure; EBV NEC195Δ65; hanging drops at 20°C, protein in 20 mM HEPES pH 8.0, 100 mM NaCl, 0.5 mM TCEP over 25% PEG 3350, 0.1 M Tris-HCl pH 8.5, 0.2 M Li2SO4; space group P4(3)2(1)2, five heterodimers in the asymmetric unit; 3.97 Å

## EBV NEC215-N31S_(BFLF2)/L262F_(BFLF2)-His8 (from UniProt P03185 1-215; P0CK47 1-318) (complex)
[1]
  in-vitro GUV budding assay (intraluminal vesicles, 1.5 uM NEC, Ni-chelating lipids), against WT EBV NEC215-N31S (BFLF2)-His8 (% of the WT EBV NEC): < 25

## EBV NEC215-N121Q_(BFRF1)/N31S_(BFLF2)-His8 (from UniProt P03185 1-215; P0CK47 1-318) (complex)
[2]
  in-vitro GUV budding assay (intraluminal vesicles, 1.5 uM NEC, Ni-chelating lipids), against WT EBV NEC215-N31S (BFLF2)-His8: 2 fold

## EBV NEC215-Q43A_(BFRF1)/N31S_(BFLF2)-His8 (from UniProt P03185 1-215; P0CK47 1-318) (complex)
[3]
  in-vitro GUV budding assay (intraluminal vesicles, 1.5 uM NEC, Ni-chelating lipids), against WT EBV NEC215-N31S (BFLF2)-His8 (% of the WT EBV NEC): < 25

## EBV NEC215-N31S_(BFLF2)/F267W_(BFLF2)-His8 (from UniProt P03185 1-215; P0CK47 1-318) (complex)
[4]
  in-vitro GUV budding assay (intraluminal vesicles, 1.5 uM NEC, Ni-chelating lipids), against WT EBV NEC215-N31S (BFLF2)-His8 (% of the WT EBV NEC): < 25

B1: EBV NEC195Δ65 (complex)
chain 1: MASPEERLLDELNNVIVSFLCDSGSLEVERCSGAHVFSRGSSQPLCTVKLRHGQIYHLEFVYKFLAFKLKNCNYPSSPVFVISNNGLATTLRCFLHEPSGLRSGQSGPCLGLSTDVDLPKNSIIMLGQDDFIKFKSPLVFPAELDLLKSMVVCRAYITEHRTTMQFLVFQAANAQKASRVMDMISDMSQQLSRSG
chain 2: RSICSRHTRHGVDRSHFSLRDFFRGISANFELGKDFLREMNTPIHVSEAVFLPLSLCTLSPGRCLRLSPFGHSLTLGSHCEICINRSQVHVPQEFSSTQLSFFNNVHKIIPNKTFYVSLLSSSPSAVKAGLSQPSLLYAYLVTGHFCGTICPIFSTNGKGRLIMHLLLQGTSLHIPETCLKLLCENIGPTYELAVDLVGDAFCIKVSPRDTVYEKAVNVDEDAIYEAIKDLECGDELRLQIINYTQLILENKQ
notes: BFRF1 of Epstein-Barr virus strain B95-8, residues 1-195; BFLF2 of Epstein-Barr virus strain B95-8, residues 66-318; Heterodimer of m1 and m2; used for the NEC/NEC dimers seen in the crystal; also called nuclear egress complex; NEC1-5 (copies in the crystal); source: E. coli Rosetta (DE3), co-expressed, purified (Ni-NTA, glutathione Sepharose, S75 size exclusion); not shown: GST, …
[5]
  binding result: binds
